From PMC9474507

Experiments:
[1] = target: pre-formed corona layer (proteins of 10% mouse serum pre-adsorbed on L-NPs) (mouse (endogenous in serum)); assay: BLI; L-NPs loaded on human IgG-coated AR2G biosensors, immersed in 10% mouse serum (300 s in the methods, 3 min in the text) and rinsed with water; association 300 s with 6.25-100 nM HSA or IgG, dissociation 600 s in buffer; 30 °C, 1000 rpm; 1:1 model
[2] = target: Albumin purified from human serum (human) (UniProt P02768); assay: BLI; HSA pre-coated on L-NPs
[3] = target: Immunoglobulin G purified from human serum (human) [IgG part: P01857]; assay: BLI; IgG pre-coated on L-NPs

Row | Kd [1] | Kd [2] | Kd [3] | Substance
1 | 1.2 nM |  |  | Immunoglobulin G purified from human serum (antibody)
2 | 32.5 nM |  |  | Albumin purified from human serum (from UniProt P02768 25-609) (natural protein)
3 |  | < 0.001 nM | 5.1 nM | Immunoglobulin G purified from human serum (from UniProt P01857)
